Laboratory results: PMC6172241, “A multisubstrate reductase from Plantago major: structure-function in the short chain reductase superfamily” (Scientific Reports, 2018)

Legend:
Assay in all cases: purified protein
purified protein [1] = substrate: C/C(C=O)=C\CC/C(C)=C/C=O; conditions: 150 µM NADPH, 20 mM MOPS pH 7.0, 3% DMSO, reductive cyclisation to nepetalactol, crystal structure with NADP+ at 1.86 Å
purified protein [2] = substrate: CC(=O)[C@H]1CC[C@H]2[C@@H]3CCC4=CC(=O)CC[C@]4(C)[C@H]3CC[C@]12C; conditions: 150 µM NADPH, 20 mM MOPS pH 7.0, 3% DMSO, substrate 10-200 µM (limited solubility), crystal structure with NAD+ at 2.7 Å, poor ligand density
purified protein [3] = substrate: CC(C)=CCC/C(C)=C/C=O; conditions: 150 µM NADPH, 20 mM MOPS pH 7.0, 3% DMSO, geranial/neral mixture

B1: PmMOR (P. major multisubstrate oxido-reductase) (Plantago major) (protein)
chain: MSWWWAGAIGAAKKRSDEDEALPKHSSVALIVGVTGIVGNSLAEILPLADTPSGPWKVYGVARRPRPAWNEDNPINYIRCDISDPKDTQEKLSPLTDITHVFYVTWANRSTEVERCEANGKMLKNVLDVVIPNCPDLKHISLQTGRKHYVGPFELIGKIETHDPPFTEDLPRLKFDNFYYTQEDLLFEEVEKKEGLTWSVHRPGNIFGFSPYSMMNLVGTLCVYAAICKHEGKVLRFPGCKAAWDGYSDCSDADLIAEHHIWAAVDPYAKNEAFNVSNGDVFKWKHFWKVLAEQFGVECGEYEEGENLKLQDLMKGKEPVWEEIVRENGLASTNLEDVAVWWFSDAVLDIPCPLDSMNKSKEHGFLGFRNSKNSFISWIDKAKAYKIVP
- Km (purified protein [1]): 368 ± 37 µM
- Vmax (purified protein [1]): 0.0053 µmol/min
- kcat/Km (purified protein [1]): 2600 M⁻¹ s⁻¹
- Km (purified protein [2]): 28 ± 3.0 µM
- Vmax (purified protein [2]): 0.00014 µmol/min
- kcat/Km (purified protein [2]): 2100 M⁻¹ s⁻¹
- Km (purified protein [3]): 82 ± 4.5 µM
- Vmax (purified protein [3]): 0.00152 µmol/min
- kcat/Km (purified protein [3]): 17000 M⁻¹ s⁻¹
